In the nanobody polyreactivity screen of Harvey et al. (2022):

Assay: yeast display, Sf9 membrane polyspecificity reagent, FACS + sequencing; frameworks hold sequencing errors
How it was run: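 A nanobody's polyreactivity label depends on the gate it was sorted from. Yeast display cells were stained with 10% biotinylated, detergent-solubilized Sf9 membrane reagent for 1 hour at 4 °C, enriched on streptavidin microbeads and sorted by FACS. The low and high (top ~1%) gates were set on anti-HA fluorescence for expression and streptavidin fluorescence for reagent binding.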

Row | Sequence | polyreactivity (PSR sort gate)
1 | QVQLVESGGGLVQAGGSLRLSCAASGIIINTYLMGWYRQAPGKERELVAAISRRGGSTYYADSVKGRFTISRDNAKITVYLQMNSLKPEDTAFYYCAADVLYQQAGTYYWGQGTQVNVSS | high polyreactivity
2 | QVQLVESGGGLVQAGGSLRLSCAASGIIIRYYGMGWYRQAPGKERELVARIRWTGGSTYYADSVKGRFTISRDNAKNTVYLQMNSLKPEDTAVYYCAADIWQYSRIANYHPYDYWGQGTQVTVSS | low polyreactivity
3 | QVQLVESGGGLVQAGGSLRLSCAASGIIISYYTMGWYRQAPGKERELVAAITGSGGSTYYADSVKGRFTISRDNAKNTVYLQMNSLKPEDTAVYYCAADPSLRQYAYFDYYYWGQGTQVTVSS | low polyreactivity
4 | QVQLVESGGGLVQAGGSLRLSCAASGIILAFNAMGWYRQAPGKEREFVASISQGGSSTYYADSVKGRFTISRDYAKNTVYLQMNSLKPEVTAVYFCAARSSRVRSPYQRYYYWGQGTQVTVSS | high polyreactivity
5 | QVQLVESGGGLVQAGGSLRLSCAASGIILDPNAMGWYRQAPGKEREMVAGITRSGVSTYYADSVKGRFTISRDNAKNTVYLQMNSLKPEDTAVYYCANDRIYGSKGEDDDYWGQGTQVSVSS | low polyreactivity
6 | QVQLVESGGGLVQAGGSLRLSCAASGIILFYAMGWYRQAPGKERELVAAISSGGGTSYADSVKGRFTISRDNAKNTVYLHMNSLKPEDTAVYYCNADGYSYFWYPSYARGHDYWGQGTQVTVSS | low polyreactivity
7 | QVQLVESGGGLVQAGGSLRLSCAASGIILGKNAMGWYRQAPGNERELVASITSGAGITYYADSVKGRFTISRDNAKNTVNLQINSLKPEDTAVYYCAADWSGDYFTDGYWGQGPQVTVSS | low polyreactivity
8 | QVQLVESGGGLVQAGGSLRLSCAASGIILGYYAMGWYRQAPGKERELVAAITRSGGRTYYADSVKGRFTISRDNAKNTVYLQMNSLKPEDTGVYYCAADDPYTPQYPDVTYDYWGQGTQVTVSS | high polyreactivity
9 | QVQLVESGGGLVQAGGSLRLSCAASGIILPWNAMGWYRQAPGKERELVAAISWSGTSTYYADSVQGRFTISRDNAKNTVYLQMNSLKPEDTAVYYCAAAYWWSWRYDYWGQGTQVTVSS | low polyreactivity
10 | QVQLVESGGGLVQAGGSLRLSCAASGIILQSYTMGWYRQAPGKERELVAALTKSGGRTYYADSVKGRFTISRDNAKNTVYLQMNSLKPEDTAVYYCAAPLSYSYDYSGQGTQVTVSS | high polyreactivity
11 | QVQLVESGGGLVQAGGSLRLSCAASGIILRYYAMGWYRQAPGKEREMVAAISYSGGRTYYADSVKGRFTISRDNAKNTVYLQMNSLKPEDTAVYYCAADYGYRIIASYDYWGQGTQVTVSS | high polyreactivity
12 | QVQLVESGGGLVQAGGSLRLSCAASGIILSPYTMGWYRQAPGKERELVAGISRSGGTTYYADSVKGRFTISRDNAKNTVYLQMNSLKPEDTAVYYCAAGLIYGYSGYDSWGQGTQVTVSS | low polyreactivity
13 | QVQLVESGGGLVQAGGSLRLSCAASGIILTQNAMGWYRQEPGKVRELVAAITESGARTYYADSVMGRFTISRDTAQNTVYLQMNSLKPEATAVYYCATEGPWGYDYWGIGTQVTVSS | low polyreactivity
14 | QVQLVESGGGLVQAGGSLRLSCAASGIILYRNGMGWYRQAPGKERELVAVISRRGGTYYADSVKGRFTISRDNAKITVYLQLNSLKPEDTAVYYCAAYLSPIGNFRGGGDYWGQGTQVTVSS | high polyreactivity
15 | QVQLVESGGGLVQAGGSLRLSCAASGIISAGYAMGWYRQAPGKERELVAAISTSGTSTYYADSVKGRFTISRDNAKNTVYLQMNSLKPEDTAVYYCAYTYYYGVGYYYWGQGTQVTVSS | low polyreactivity
16 | QVQLVESGGGLVQAGGSLRLSCAASGIISIFNVMGWYRQAPGKERELVASITGRGGSTFYADSVKGRFTISRDNAKNTDYLQLNSLIPEDTAVYYCATDTGYTYPVTGLYDYWGQGTQVTVSS | low polyreactivity
17 | QVQLVESGGGLVQAGGSLRLSCAASGIISRYYAMGWYRQAPGKERELVASISSGVGTNYADSVKGRFTISRDNAKNTVYLQMNSLKPEDTAVYYCAARFRYYRHYYWGQGSQVTVSS | high polyreactivity
18 | QVQLVESGGGLVQAGGSLRLSCAASGIISSVYAMGWYRQAPGKERELVAAISGSGGSTYYADSVKGRFTISRDNAKNTVYLQMNSLKPEDTAVYYCAKGYQYQGNSYGYWGQGTQVTVSS | low polyreactivity
19 | QVQLVESGGGLVQAGGSLRLSCAASGIISTYYVMGWYRQAPGKERELVAAITGGDTSTYYADSVKGRFTISRDNAKKTVYLQMNSLKPEDTADYYCAKEYYYARGARYDYWGQGTQVTVSS | low polyreactivity
20 | QVQLVESGGGLVQAGGSLRLSCAASGIISTYYVMGWYRQAPGKERELVAAITGGGTYYADSVKGRFTISRDNAKNTVYLQMNSLKPEDTAVYYCAVDGTYAYGYSRDYDYWGQGTQVTVSS | low polyreactivity
21 | QVQLVESGGGLVQAGGSLRLSCAASGIISVRNTMGWYRQAPGKERELVAAISGSGGSTHYADSVKGRFTISRDNAKNTVYLQMNSLKTEDTEVYYCAVRSYGYWHFGYWGQGTQVTVSS | high polyreactivity
22 | QVQLVESGGGLVQAGGSLRLSCAASGIIYWDYAMGWYRQAPGKEREYVAAINTSGGTTTYADSVKGRFTISRDNAKNTVYFQMNSLKREDTAVYYCAADPWVYYSYAYYSWGQGTQVTVSS | low polyreactivity

Row | Sequence | polyreactivity (PSR sort gate)
23 | QVQLVESGGGLVQAGGSLRLSCAASGIIYYTYAMGWYRQAPGKERELVATISWDVDSTNYADSVKGRFTISRDNAKNTVYLQMNSLKPEDTALYYCAGDYTVDSYWYWVDYYEYGYWGQGTQVTVSS | high polyreactivity
24 | QVQLVESGGGLVQAGGSLRLSCAASGIMFFLYAMGWYRQAPGKERELVAAISSGGSTYYAVSVKGRFTISRDNAKNTVYLQMNSLKPEDTAVYYCNARYWPFRYYYWGQGTQVTVSS | high polyreactivity
25 | QVQLVESGGGLVQAGGSLRLSCAASGIMFTSNTMGSYRQAPGKEREFVASINWNGSSTYADSVKGRFTISRDNAKNTDYLQMNSLKPEDTAVYYCNADYNRNSVQFSLYDYWGQGTQVTVSS | low polyreactivity
26 | QVQLVESGGGLVQAGGSLRLSCAASGINFYDYAMGWYRQAPGKEREFVAAISWDGVSTYYADSVKGRFTISRDNAKNTVYLQMNSLKPEDTAVYYCAARAVTDDYYEFDYWGQGTQVTVSS | low polyreactivity
27 | QVQLVESGGGLVQAGGSLRLSCAASGINFYRYAMGWYRQAPGKERELVAAITGSGGNTYYADSVKGRFTISRDNAKNTVYLQMNSLKPEDTAVYYCAKRDYRHQYNYWGQGTQVTVSS | high polyreactivity
28 | QVQLVESGGGLVQAGGSLRLSCAASGINLFYYAMGWYIQAPGKETDFVAAISWSGGSTYYADSVKGRFTISRDNAQNTVYLQMNSLKPEDTALYYCAAKWYSYRWTQFDYWGQGTQVTVSS | high polyreactivity
29 | QVQLVESGGGLVQAGGSLRLSCAASGISFSYYAMGWSRQAPGKERELVAAISSSGSTNYADSVKGRFTISRDNAKNTVYLQMNSLKPEDTAVYYCNAGYGRRVYVYSFKLRYNYWGQGTQVTVSS | high polyreactivity
30 | QVQLVESGGGLVQAGGSLRLSCAASGISFTYNTMGWSRQAPGKESELVAAITSGGGTNYADSVKGRFTISRDNAKNTVYLQMNSLKPEDTAVYYCAKDPGTVGPIWYDYWGQGTQVTVSS | low polyreactivity
31 | QVQLVESGGGLVQAGGSLRLSCAASGISFWDYAMGWYRQAPGKERELVAAISSGGSTYYADSVKGRFTISRDNAKNTVYLQMNSLKPEDTAVFYCNAEQRYYRKVKGNYWGQGTQVSVSS | high polyreactivity
32 | QVQLVESGGGLVQAGGSLRLSCAASGISFYLYAMGWYRQAPGKERELVAAISWRGDSTYYADSVKGRFTISRDNAKNTVYLQMNSLKPEDTAVYYCAADLLPLYDYWGQGTQVTGSS | high polyreactivity
33 | QVQLVESGGGLVQAGGSLRLSCAASGISSWYYAMGWYRQAPGKERELVAAITSDGRTNYADSVKGRFTISRDNAKNTVYLQMKSLKPEDTAVYYCAAARRVGVSHYRYGYWGHGTQVTVSS | high polyreactivity
34 | QVQLVESGGGLVQAGGSLRLSCAASGITFAGYARGWYRQAPGKERELVAAISGSGGSTYYADSVKGRFTISRDNAKNTVYLQMNSLKPEDTAVYYCNADVVPQYYSWGQGTQVTVSS | low polyreactivity
35 | QVQLVESGGGLVQAGGSLRLSCAASGITFAQYAMGWYRQAPGKERELVAGITRSGGSTHYADSVKGRFTISRDNAKNSVYLQMNSLKPEDTAVYYCAKGLSTGRAYRGYDYWGQGTQVTVSS | high polyreactivity
36 | QVQLVESGGGLVQAGGSLRLSCAASGITFASYAMGWYRQAPGKERELVAAISRTGGSTYYADSVKGRFTISRDNAKNTVYLQMNSLKPEDTAVYYCAARIPYTGYDYWGQGTQVTVSS | high polyreactivity
37 | QVQLVESGGGLVQAGGSLRLSCAASGITFATNAMGWYRQAPGKERELVAGITSGGSTYYADSVKGRFTISRDNAKNTVYLQMNSLKPEDTAVYYCNTAVKVERDYWGQGTQVTVSS | low polyreactivity
38 | QVQLVESGGGLVQAGGSLRLSCAASGITFAWYAMGWYRQAPGKERELVAAIDDRGGSTYYADSVKGRFTISRDNAKNTVYFQMNSLKPEDTAVYYCNADTKSYEPYRLDYWGQGTQVTVSS | low polyreactivity
39 | QVQLVESGGGLVQAGGSLRLSCAASGITFAYNAMGWYRQAPGKERELVAAITTGGDTYYADSVKGRFTISRDNAKNTVYLQMNSLKPEDTAVYYCAATPTYWYLWSPYDYWGQGTQVTVSS | low polyreactivity
40 | QVQLVESGGGLVQAGGSLRLSCAASGITFAYNVMGWYRQAPGKERELVAAISWTGSSTYYADSVKGRFTISRDNAKNTVYLQMNSLKQEDTAVYYCAARQRYRYDYWGQGTQVTVSS | high polyreactivity
41 | QVQLVESGGGLVQAGGSLRLSCAASGITFAYYAMGRSRQAPGKERELVAAIRWSGGDTYYADSVKGRFTISRDNAKNTVYLQMNSLKPEDTAVYYCAADTTWGYDYWGQGTQVTVSS | low polyreactivity
42 | QVQLVESGGGLVQAGGSLRLSCAASGITFAYYVMGWYRQAPGKERELVAAITRSGDITSYADSVKGRFTISRDNAKNTVYLQMNSMKPEDTAVYYCNARRGYQSRRYNYWGQGTQVSVSS | high polyreactivity
43 | QVQLVESGGGLVQAGGSLRLSCAASGITFDHYTMGWYRHAPGKEREFVADITGSGVRTYYADSVKGRFTISRDNAKNTVYLQMNCLKAEDNAVYYCAKRRTLYYSGKLGYWGQGTQVTVSS | high polyreactivity
